Measurements from IntAct's records for PubMed 19632184.

Target: mare1_human MAPRE1 (UniProt Q15691)
Sequence (Q15691 whole entry): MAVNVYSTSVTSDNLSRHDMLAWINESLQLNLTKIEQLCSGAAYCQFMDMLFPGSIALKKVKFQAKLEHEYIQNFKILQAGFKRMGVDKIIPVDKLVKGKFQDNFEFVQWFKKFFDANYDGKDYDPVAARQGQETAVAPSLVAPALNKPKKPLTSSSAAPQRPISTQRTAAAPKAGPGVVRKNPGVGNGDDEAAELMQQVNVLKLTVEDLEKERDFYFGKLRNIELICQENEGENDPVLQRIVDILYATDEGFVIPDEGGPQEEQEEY

- effect of a mutation on the interaction: decreasing interaction
Substance: Dystonin (Homo sapiens), Q03001 I7552N;P7553N
